Measured values from article PMC10692919.

Biological target: BMPs (in the Hep3B hepcidin bioassay)

B1: Full-length ERFE ΔCollagen, 43-354 del109-125, FLAG-tagged (natural protein)
chain: EPPPGNELPRGPGESRAGPAARPPEPTAERAHSVDPRDAWMLFVRQSDKGVNGKKRSRGKAKKLKFIIPPEALLKEFQLLLKGAVRQRERAEPEPCTCGPAGPVAASLAPVSATAGEDDDDVVGDVLALLAAPLAPGPRAPRVEAAFLCRLRRDALVERRALHELGVYYLPDAEGAFRRGPGLNLTSGQYRAPVAGFYALAATLHVALGEPPRRGPPRPRDHLRLLICIQSRCQRNASLEAIMGLESSSELFTISVNGVLYLQMGQWTSVFLDNASGCSLTVRSGSHFSAVLLGV
For B1, the IC50 of suppression of hepcidin mRNA (qPCR) in Hep3B cells was 10 nM.
